In patent publication US20110097317A1:

Biological target: thioredoxin (TRX), endogenous in bovine aortic endothelial cells (BAEC) (bovine) (UniProt O97680)
Assay: cell-based or functional assay

Sequence of UniProt O97680 (O97680 2-105 limits assumed): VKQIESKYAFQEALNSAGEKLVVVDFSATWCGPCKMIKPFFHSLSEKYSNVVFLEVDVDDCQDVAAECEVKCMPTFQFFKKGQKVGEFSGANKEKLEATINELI

Q: How did the TNF-mediated activation of JNK (phospho-specific immunoblot) in BAEC over-expressing TXNIP turn out when “Thioredoxin interacting protein (TXNIP) over-expressed from pcDNA3.1-TXNIP in BAEC” was run?
A: 33%

Q: What about the TNF-mediated activation of p38 (phospho-specific immunoblot) in BAEC over-expressing TXNIP of the same substance?
A: 23%
